Target: the molecule itself
Test: ESI-MS; peptide 100 uM in 10 mM borate buffer pH 9, incubated with compound 2 (1:10) for 0 h (UV-irradiated) or 24 h (not irradiated), diluted in 15 mM ammonium acetate

B1: nucleophosmin 1 (NPM1) 264-277, second helix (H2) of the C-terminal domain (peptide)
peptide: Ac-VEAKFINYVKNCFR-NH2
notes: nucleophosmin 1 (NPM1), helix H2 of the C-terminal domain, residues 264-277; By ESI-MS the peptide is present as a monomer and as a disulfide-bridged dimer; also called NMP1_(264–277); NPM1_(264–277)(M); source: synthetic peptide (SPPS), treated with HFIP, purified by RP-HPLC
- stoichiometry N: 2

— paper PMC7464691, “Modulation of Amyloidogenic Peptide Aggregation by Photoactivatable CO-Releasing Ruthenium(II) Complexes” (Pharmaceuticals, 2020)
